Laboratory results reported in US9377466B2, “Compounds and methods” (Modpro AB, priority 2010, dated 2016).
Read-outs that look alike come from different tables or passages of the source. Ends that are not written are not given here.

Assays:
[1] = CD spectroscopy, mean residue ellipticity of the sixteen scaffold polypeptides; type: physicochemical; conditions: error ±1000; for [θ]222 at high concentration: high concentration 30-230 μM as listed per peptide; for [θ]222 at low concentration: low concentration 1-5 μM as listed per peptide
Experimental: The mean residue ellipticities at 222 nm, [θ]222, □ of the sixteen scaffold polypeptides were recorded at two concentrations, approximately 30 μM and approximately 1 μM, to characterize the state of aggregation, cf.
The degree of helix formation is related to the monomer-dimer equilibrium since monomers are unordered with low helical content whereas dimers are highly helical. […] While the ^1H NMR spectra have not been recorded of all sequences and of all polypeptide conjugates, it is likely that the sequences presented here are best described as molten globules.

[2] = system: thymidine kinase (TK); assay: Fluorescence binding studies with TK; conditions: 2 μM peptide, one and two equivalents of TK
Experimental: Estimating that at least 60% of the peptides were then bearing the ligand, the solution was diluted to 2 μM concentration and the protein TK was added. The fluorescence response was screened after 15 min, 45 min, 2 hrs, and 20 hrs. A maximal response was seen after 2 hours of incubation time.
A NUNC™ polystyrene 384 well plate (100 μl-volume) and pipette-tips were coated with Pluronic® overnight, then washed with H2O and dried. The fluorescence-measurement was carried out in Tris-buffers (Buffer for TK-studies: 20 mM Tris/HCl, 0.4 M NaCl, 0.3 M imidazole, 2 mM DTT, 50% glycerol, pH 7.6). Assuming that at least 60% of the dT-binder was conjugated to the polypeptides (see 0), stock-solutions were prepared with a concentration of 60 μM. The concentration of the TK stock solution was 0.10 mM. A polypeptide concentration of 2 μM in […] was used. The protein was added to wells containing the peptide conjugates to give final TK concentrations of 2 or 4 μM. Fluorescence intensities of protein-binder mixtures were compared to intensities of binders without protein and a significant change in fluorescence intensity in the presence of one equivalent of protein, in comparison to that of binder without protein, was interpreted as complexation of target protein by the binder. Binders showing a change in intensity in the presence of 2 μM protein but no further change in intensity in the presence of 4 μM protein were considered “hits”.
The dansyl probe was excited at 335 nm and emission was recorded 420-600 nm. All measurements were performed at room temperature and were made in triplicates. The wells were read after 15 min, 45 min and 2 hours.

[3] = system: thymidine kinase (TK); assay: Binding studies with TK in the presence of ATP (fluorescence, MALDI-TOF); conditions: for binding affinity to TK (in words): 1, 2 and 3 eq. TK, buffer with and without ATP; for time after which peptide is fully phosphorylated (MALDI-TOF): TK, buffer with ATP
Experimental: The fluorescence intensities were measured in presence of 1, 2 and 3 eq. TK in buffer with and without ATP. The introduction of ATP represents a realistic measurement situation as it is present in biological samples and is likely to react with the probe in the presence of TK. Data were collected 15 min, 45 min and 2 hrs after adding the enzyme. The samples for MALDI-TOF were collected appr. 5 mins, 45 mins and 2 hours after adding the enzyme to measure the change in masses.

[4] = target: T1, HCAI (Homo sapiens, UniProt P00915); conditions: literature, read-out: dissociation constant Kd for HCAI, cited from earlier work
T1 construct: purchased Sigma
T1 sequence (P00915 whole entry): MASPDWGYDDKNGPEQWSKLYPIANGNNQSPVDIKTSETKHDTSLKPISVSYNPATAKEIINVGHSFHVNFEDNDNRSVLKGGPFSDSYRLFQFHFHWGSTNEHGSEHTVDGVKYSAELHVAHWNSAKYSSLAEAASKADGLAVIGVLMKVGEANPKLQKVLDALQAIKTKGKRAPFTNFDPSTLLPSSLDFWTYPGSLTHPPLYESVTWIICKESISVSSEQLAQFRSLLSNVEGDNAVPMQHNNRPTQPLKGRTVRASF

1-C10L17: SEQ ID NO: 5 NAADLEAAIKHLAEALKERGPEDCEQLAEQLARAFEAFARAG
[θ]222 at high concentration [1]: −18200 deg cm^2 dmol^−1 | [θ]222 at low concentration [1]: −11800 deg cm^2 dmol^−1

1-C15L8: SEQ ID NO: 1 NEADLEAKIRHLAEKLEARGPEDAEQLAEQLARAFEAFARAG
[θ]222 at high concentration [1]: −17800 deg cm^2 dmol^−1 | [θ]222 at low concentration [1]: −25100 deg cm^2 dmol^−1

1-C25L22: SEQ ID NO: 9 NEADLEAAIRHLAEALEARGPKDAKQLAEQLARAFEAFERAG
[θ]222 at high concentration [1]: −24800 deg cm^2 dmol^−1 | [θ]222 at low concentration [1]: −18000 deg cm^2 dmol^−1

2-C10L17: SEQ ID NO: 6 NAADLEAAIKHLAEALKARGPVDAAQLAEQLARAFEAFARAG
[θ]222 at high concentration [1]: −23400 deg cm^2 dmol^−1 | [θ]222 at low concentration [1]: −20400 deg cm^2 dmol^−1

2-C15L8: SEQ ID NO: 2 NEADLEAKIRHLAEKLAARGPVDAAQLAEQLARAFEAFARAG
[θ]222 at high concentration [1]: −24900 deg cm^2 dmol^−1 | [θ]222 at low concentration [1]: −20800 deg cm^2 dmol^−1

2-C25L22: SEQ ID NO: 10 NEADLEAAIRHLAEALAARGPKDAKQLAEQLARAFEAFARAG
[θ]222 at high concentration [1]: −25000 deg cm^2 dmol^−1 | [θ]222 at low concentration [1]: −24800 deg cm^2 dmol^−1

2-C37L34-dT: polypeptide 2-C37L34 conjugated to deoxy-thymidine (dT) probe 19 (NAADLEAAIRHLAERLAARGPVDAAQLAEQLAAKFEKFARAG; also: conjugated to deoxy-thymidine (dT) probe 19, site not given here)
classification in fluorescence screen [2]: not considered to be tight binders

2-C37L34: SEQ ID NO: 14 NAADLEAAIRHLAERLAARGPVDAAQLAEQLAAKFEKFARAG
[θ]222 at high concentration [1]: −23900 deg cm^2 dmol^−1 | [θ]222 at low concentration [1]: −30300 deg cm^2 dmol^−1

3-C10L17-dT: polypeptide 3-C10L17 conjugated to deoxy-thymidine (dT) probe 19 (NAADLEARIKHLAERLKARGPVDAAQLAEQLARAFEAFARAG; also: conjugated to deoxy-thymidine (dT) probe 19, site not given here)
classification in fluorescence screen [2]: not considered to be tight binders

3-C10L17: SEQ ID NO: 7 NAADLEARIKHLAERLKARGPVDAAQLAEQLARAFEAFARAG
[θ]222 at high concentration [1]: −22400 deg cm^2 dmol^−1 | [θ]222 at low concentration [1]: −20700 deg cm^2 dmol^−1

3-C15L8-dT: polypeptide 3-C15L8 conjugated to deoxy-thymidine (dT) probe 19 (NAADLEAKIRHLAEKLAARGPVDAAQLAEQLARRFEAFARAG; also: conjugated to deoxy-thymidine (dT) probe 19, site not given here)
binding affinity to TK (in words) [3]: good but not as good as for 4-C10L17-dT | time after which peptide is fully phosphorylated (MALDI-TOF) [3]: 45 min

3-C15L8: SEQ ID NO: 3 NAADLEAKIRHLAEKLAARGPVDAAQLAEQLARRFEAFARAG
[θ]222 at high concentration [1]: −23400 deg cm^2 dmol^−1 | [θ]222 at low concentration [1]: −19700 deg cm^2 dmol^−1

3-C25L22: SEQ ID NO: 11 NAADLEAAIRHLAERLAARGPKDAKQLAEQLARAFEAFARAG
[θ]222 at high concentration [1]: −26400 deg cm^2 dmol^−1 | [θ]222 at low concentration [1]: −23000 deg cm^2 dmol^−1

3-C37L34: SEQ ID NO: 15 NAADLEAAIRHLAERLAARGPVDAAQLAEQLARKFEKFARAG
[θ]222 at high concentration [1]: −22500 deg cm^2 dmol^−1 | [θ]222 at low concentration [1]: −22200 deg cm^2 dmol^−1

4-C10L17-dT: polypeptide 4-C10L17 conjugated to deoxy-thymidine (dT) probe 19 (NAADLEARIKHLRERLKARGPRDAAQLAEQLARAFERFARAG; also: conjugated to deoxy-thymidine (dT) probe 19, site not given here)
binding affinity to TK (in words) [3]: strong binding affinity | time after which peptide is fully phosphorylated (MALDI-TOF) [3]: 45 min

4-C15L8-dT: polypeptide 4-C15L8 conjugated to deoxy-thymidine (dT) probe 19 (NAADLEAKIRHLREKLAARGPRDAAQLAEQLARRFERFARAG; also: conjugated to deoxy-thymidine (dT) probe 19, site not given here)
classification in fluorescence screen [2]: not considered to be tight binders

4-C15L8: SEQ ID NO: 4 NAADLEAKIRHLREKLAARGPRDAAQLAEQLARRFERFARAG
[θ]222 at high concentration [1]: −22000 deg cm^2 dmol^−1 | [θ]222 at low concentration [1]: −15300 deg cm^2 dmol^−1

4-C25L22-dT: polypeptide 4-C25L22 conjugated to deoxy-thymidine (dT) probe 19 (NAADLEARIRHLRERLAARGPKDAKQLAEQLARAFERFARAG; also: conjugated to deoxy-thymidine (dT) probe 19, site not given here)
classification in fluorescence screen [2]: not considered to be tight binders | binding affinity to TK (in words) [3]: generally good binding affinity | time after which peptide is fully phosphorylated (MALDI-TOF) [3]: 5 to 10 min

4-C25L22: SEQ ID NO: 12 NAADLEARIRHLRERLAARGPKDAKQLAEQLARAFERFARAG
[θ]222 at high concentration [1]: −23700 deg cm^2 dmol^−1 | [θ]222 at low concentration [1]: −18200 deg cm^2 dmol^−1

4-C37L34: SEQ ID NO: 16 NAADLEARIRHLRERLAARGPRDAAQLAEQLARKFEKFARAG
[θ]222 at high concentration [1]: −19600 deg cm^2 dmol^−1 | [θ]222 at low concentration [1]: −14900 deg cm^2 dmol^−1

benzenesulphonamidecarboxylic acid
Kd ([4]; listed as benzenesulphonamide): 1 to 4 µM | Kd [4]: 1.1 to 3.9 µM
